Measured values taken from publication PMC3896488, “Complex Regulation of PKCβ2 and PDK-1/AKT by ROCK2 in Diabetic Heart” (PLoS ONE, 2014).

Molecular target: Protein kinase C β2 (rat (endogenous in Wistar rat heart), UniProt P68403-2 1-673)
Assay: cell-based or functional assay

Sequence of Protein kinase C β2 (P68403 other isoform, or with tags, fused parts or gaps): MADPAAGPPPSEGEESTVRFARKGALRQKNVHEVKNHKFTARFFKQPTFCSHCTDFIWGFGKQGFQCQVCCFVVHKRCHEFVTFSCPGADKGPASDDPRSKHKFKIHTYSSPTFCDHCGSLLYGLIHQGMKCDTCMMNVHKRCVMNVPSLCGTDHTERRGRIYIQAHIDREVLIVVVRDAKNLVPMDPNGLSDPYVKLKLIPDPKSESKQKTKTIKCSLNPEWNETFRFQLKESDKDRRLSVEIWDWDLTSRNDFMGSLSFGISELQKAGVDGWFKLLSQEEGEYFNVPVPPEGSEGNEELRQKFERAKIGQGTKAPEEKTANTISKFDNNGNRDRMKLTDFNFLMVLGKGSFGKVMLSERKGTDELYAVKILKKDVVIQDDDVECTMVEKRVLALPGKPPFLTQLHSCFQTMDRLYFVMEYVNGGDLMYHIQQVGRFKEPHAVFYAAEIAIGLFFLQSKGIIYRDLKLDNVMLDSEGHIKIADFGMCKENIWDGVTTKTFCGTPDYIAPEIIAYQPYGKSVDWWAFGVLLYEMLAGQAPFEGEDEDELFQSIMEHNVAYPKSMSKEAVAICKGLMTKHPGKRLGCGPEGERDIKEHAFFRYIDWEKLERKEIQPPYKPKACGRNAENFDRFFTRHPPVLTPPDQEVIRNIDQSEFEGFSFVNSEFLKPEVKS

B1: ROCK2 (enzyme, rat (endogenous in Wistar rat heart), UniProt Q62868 1-1388, looked up)
chain: MSRPPPTGKMPGAPEAAAGDGAGAGRQRKLEALIRDPRSPINVESLLDGLNSLVLDLDFPALRKNKNIDNFLNRYEKIVKKIRGLQMKAEDYDVVKVIGRGAFGEVQLVRHKASQKVYAMKLLSKFEMIKRSDSAFFWEERDIMAFANSPWVVQLFCAFQDDRYLYMVMEYMPGGDLVNLMSNYDVPEKWAKFYTAEVVLALDAIHSMGLIHRDVKPDNMLLDKHGHLKLADFGTCMKMDETGMVHCDTAVGTPDYISPEVLKSQGGDGYYGRECDWWSVGVFLFEMLVGDTPFYADSLVGTYSKIMDHKNSLCFPEDTEISKHAKNLICAFLTDREVRLGRNGVEEIKSASFFKNDQWNWDNIRETAAPVVPELSSDIDSSNFDDIEDDKGDVETFPIPKAFVGNQLPFIGFTYFRENLLLSDSPPCRENDAIQTRKSEESQEIQKKLYALEEHLSSEVQAKEELEQKCKSINTRLEKTAKELEEEITFRKNVESTLRQLEREKALLQHKNAEYQRKADHEADKKRNLENDVNSLKDQLEDLKKRNQSSQISTEKVNQLQKQLDEANALLRTESDTAARLRKTQAESSKQIQQLESNNRDLQDKNCLLETAKLKLEKEFINLQSALESERRDRTHGSEIINDLQGRISGLEEDLKTGKTLLAKVELEKRQLQEKLTDLEKEKSNMEIDMTYQLKVIQQSLEQEEAEHKTTKARLADKNKIYESIEEAKSEAMKEMEKKLLEERSLKQKVENLLLEAEKRCSILDCDLKQSQQKLNELLKQKDVLNEDVRNLTLKIEQETQKRCLMQNDLKMQTQQVNTLKMSEKQIKQENNHLMEMKMNLEKQNAELRKERQDADGQMKELQDQLEAEQYFSTLYKTQVRELKEENEEKTKLCKELQQKKQDLQDERDSLAAQLEITLTKADSEQLARSIAEEQYSDLEKEKIMKELEIKEMMARHKQELTEKDATIASLEETNRTLTSDVANLANEKEELNNKLKDTQEQLSKLKDEEISAAAIKAQFEKQLLTERTLKTQAVNKLAEIMNRKEPVKRGSDTDVRRKEKENRKLHMELKSEREKLTQQMIKYQKELNEMQAQIAEESQIRIELQMTLDSKDSDIEQLRSQLQALHIGMDSSSIGSGPGDAEPDDGFPESRLEGWLSLPVRNNTKKFGWVKKYVIVSSKKILFYDSEQDKEQSNPYMVLDIDKLFHVRPVTQTDVYRADAKEIPRIFQILYANEGESKKEPEFPVEPVGEKSNYICHKGHEFIPTLYHFPTNCEACMKPLWHMFKPPPALECSRCHIKCHKDHMDKKEEIIAPCKVYYDISSAKNLLLLANSTEEQQKWVSRLVKKIPKKPPAPDPFARSSPRTSMKIQQNQSIRRPSRQLAPNKPS
in vitro phosphorylation of dephosphorylated PKCβ2 at T641 with against without active ROCK2 (molar ratio 1:30, 400 µM ATP, 37°C, 45 min), Western blot: ~2 fold
